Test: yeast display, Sf9 membrane polyspecificity reagent, FACS + sequencing; frameworks hold sequencing errors
Summary of the method: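 A nanobody's polyreactivity label depends on the gate it was sorted from. Yeast display cells were stained with 10% biotinylated, detergent-solubilized Sf9 membrane reagent for 1 hour at 4 °C, enriched on streptavidin microbeads and sorted by FACS. The low and high (top ~1%) gates were set on anti-HA fluorescence for expression and streptavidin fluorescence for reagent binding.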

Row | Sequence | polyreactivity (PSR sort gate)
1 | QVQLVESGGGLVQAGGSLRLSCAASGSIFRYYAMGWYRQAPGKERELVAAISWSVGGTYYADSVKGRFTISRDNAKNTVYLQMNSLKPEDTAVYYCAADVLYTQYGYWGQGTQVTVSS | low polyreactivity
2 | QVQLVESGGGLVQAGGSLRLSCAASGSIFRYYAMGWYRQAPGKERELVASINSGGSTYYADSVKGRFTISRDNAKNTVYLLMNSLKPEDTAVYYCAAETSYYYRGYWKSYDYWGQGTQVTVSS | high polyreactivity
3 | QVQLVESGGGLVQAGGSLRLSCAASGSIFRYYAMGWYRQAPGKERELVASIRRGDSTYYADSVKGRFTISRDNAKNTVYLQMNSLKPEDTAVYYCAARFFWPQRGGYWGQGTQVTVSS | high polyreactivity
4 | QVQLVESGGGLVQAGGSLRLSCAASGSIFRYYTMGWYRQAPGKERELVAAISWSGGSTYYADSVKGRFTISRDNAKNTVYLQMNSLKPEDTPVYYCNAVSFAYNPYSGTYDYRGQGTQVTVSS | high polyreactivity
5 | QVQLVESGGGLVQAGGSLRLSCAASGSIFRYYVMGWYRQAPGKERELVAAISGGSTYYADSVKGRFTISRDNAKNTVYLQMNSLKPEDTAVYYCAAEQWSTGYYYWGQGTQVTVSS | high polyreactivity
6 | QVQLVESGGGLVQAGGSLRLSCAASGSIFSANAMGWYRQAPGKERELVAAISSSGNTNYSDSVKWRFTISRDNAKNTFYLQMNSLKPEDTAVYYCAVELKQVTPGLGYITLDYWGQGTQVTVSS | low polyreactivity
7 | QVQLVESGGGLVQAGGSLRLSCAASGSIFSANTMGWYRQAPGNEREFVAGITTSAGRTDYADSVKGRFTISRDNAKNTVYVQMNSLKPEDTAVYYCNADRRYYYHYRRYWYDYWGQGTQVTVSS | high polyreactivity
8 | QVQLVESGGGLVQAGGSLRLSCAASGSIFSANVMGWYRQAPGTERELVAAIRRGGTTYYADSVKGRFTISRDNAKNTVYLQMNSLKPEDTAVYYCATDGIFGSYLRFEVAYDYWGQGTQVTVSS | low polyreactivity
9 | QVQLVESGGGLVQAGGSLRLSCAASGSIFSAYAMGWYRQAPGKERELVAAISWRTGRTYYADSVKGRFTISRDNAKNTVYLQMNSLKPEDTAVYYCAVVLGVRPYDKHDYWGQGTQVTVSS | high polyreactivity
10 | QVQLVESGGGLVQAGGSLRLSCAASGSIFSDNAMGWYRQAPGKERELVAAITWSGGSTYYADSVKGRFTISRDNAKNTVYLQMNSLKPEDTAVYYCAADGDYYWYYHGTYDYWGQGTQVTVSS | low polyreactivity
11 | QVQLVESGGGLVQAGGSLRLSCAASGSIFSDNAMGWYRQAPGKERELVASITNSGSTNYADSVKGRFTISRDNAKNTVYLQMNSLKPEDTAVYYCAFSFLYTYDYWGQGTQVTVSS | low polyreactivity
12 | QVQLVESGGGLVQAGGSLRLSCAASGSIFSDYAMGWYRQAPGKETELVAGISSGGGTTYADSVKGRFTISRDNAKNTVYLQMNSLKPEDTAVYYCNKQDQPVGRSGYPYGYDYWGQGTQVTVSS | low polyreactivity
13 | QVQLVESGGGLVQAGGSLRLSCAASGSIFSFNAMGWYRQAPGKERELVAAITTSGGSTYADSVKGLFTISRDNAKNTVYLQMNSLKPEDTAVYYCAVVGEVEGYYWDDYWGQGTKVTVSS | low polyreactivity
14 | QVQLVESGGGLVQAGGSLRLSCAASGSIFSFYAMGWYRQAPGKERELVAAISWSGGSTYYADSVKGRFTISRDNAKNTVYLQMNSLKPEDTAVYYCAADYYYGTYDYWGQGTQVTVST | low polyreactivity
15 | QVQLVESGGGLVQAGGSLRLSCAASGSIFSFYAMGWYRQAPGKERELVAAITSDGSTDYADSVKGRFTISRDNAKNTVYLQMNSLKPEDTAVYYCAADYIVRVVSRYRYGYEYWGQGTQVTVSL | low polyreactivity
16 | QVQLVESGGGLVQAGGSLRLSCAASGSIFSFYAMGWYRQAPGKERELVAGIDISGGSTYYADSVKGRFTISRDNAKNTVYLQMNSLKPEDTAVYYCAAAKRTDYFYFVAKSGFRYYSWGQGTQVTVSS | high polyreactivity

Row | Sequence | polyreactivity (PSR sort gate)
17 | QVQLVESGGGLVQAGGSLRLSCAASGSIFSFYAMGWYRQAPGKERELVASITRRGGSTSYADSVKGRFTISRDNAKNTVYLQMNSLKPEDTAVYYCATESKFISVQRVGYYYVKFDYWGQGTQVTVSS | high polyreactivity
18 | QVQLVESGGGLVQAGGSLRLSCAASGSIFSFYTMGWYRQAPGKERELVASSTTYADSVKGRFTISRDNAKNTVYLQMNSLQPEDTAVYYCATRHPARRDYWGQGTQVTVSS | low polyreactivity
19 | QVQLVESGGGLVQAGGSLRLSCAASGSIFSFYTMGWYRQAPGKERELVATISWRSGSTYYADSVKGRFTISRDNAKNTVYLQMNSLKPEDTAVYYCARSTSRYYYWGQGTQVTVSS | high polyreactivity
20 | QVQLVESGGGLVQAGGSLRLSCAASGSIFSGNAMGWYRQAAGKERELVAVITYRSSRTYYADSVKGRFTISRDNAKNTVYLQMNSLKPEDTAVYYCAAYSNRVVKGYGYWGQGTQVTVSS | high polyreactivity
21 | QVQLVESGGGLVQAGGSLRLSCAASGSIFSGNAMGWYRQAPGKERELVAAIDWSGDSTYYADSVKGRFTISRDNAKNTVYLQMNSLKPEDTAVYYCNTVSFSWGYSAYDYWGQGTQVTVSS | low polyreactivity
22 | QVQLVESGGGLVQAGGSLRLSCAASGSIFSGNAMGWYRQAPGKERELVAAISRNGGSTYYADSVKGRFTISRDNAMNTVYLQMISLKPEDTAVYYCAASWYRRKIYYSWGQGTQVTVSS | high polyreactivity
23 | QVQLVESGGGLVQAGGSLRLSCAASGSIFSGNVMGWYRPAPGKERELVAAISGRGGSTYYPDSVKGRFTISRDNAKNTVFLQMNSRNPVDTAVYECAAVYLKTYYWGQGTQVTVSS | high polyreactivity
24 | QVQLVESGGGLVQAGGSLRLSCAASGSIFSGWYTMGWYRQAPWKERELVASISISTTDTYYADSVKGRFTISRDNAKNTVYVQMNSLKPEDTAVYYCAASGWDHVIVEYDYWGQGTQVTVSS | low polyreactivity
25 | QVQLVESGGGLVQAGGSLRLSCAASGSIFSGYVMGWYRQAPGKERELVAAIDNSSGSTYYADSVKGRFTISRDNAKNTVYLQMNSLKPEDTAVYYCAADYYSKAYSEYDYWGQGTQVTVSS | low polyreactivity
26 | QVQLVESGGGLVQAGGSLRLSCAASGSIFSHYVMGWYRQAPGKERELVAAISRSGGTTYYADSVKGRFTISRDNAKNTVYLQMNSLKPEDTAVYYCNVRGEPYPYYDGYEYDYWGQGTQVTVSS | low polyreactivity
27 | QVQLVESGGGLVQAGGSLRLSCAASGSIFSIYAMGWYRQAPGKERELVAAIDSGTSTTYADSVKGRFTISRDNAKNTVYLQMNSLKPEDTAVYYCAAALYSDVAAVATYVYYWGQGTQVTVSS | low polyreactivity
28 | QVQLVESGGGLVQAGGSLRLSCAASGSIFSIYAMGWYRQAPGKERELVASITRSSGRTYYADSVKGRFTISRDNAKNTVYLQMNSLKPEDTAVYYCNAVWNTFISGRSYDYWGQGTQVTVSS | low polyreactivity
29 | QVQLVESGGGLVQAGGSLRLSCAASGSIFSKNAMGWYRQAPGKERELVAAISWSGDRTYYADSVKGRFTISRDNAKNTVYLQMNSLKPEDTAVYYCAADYTVKYGYWGQGTQVTVSS | high polyreactivity
30 | QVQLVESGGGLVQAGGSLRLSCAASGSIFSKYAMGWYRQAPGKERELVAAISISDGNTYYADSVKGRFTISRDNAKNTVYLQMNSLKPEDTAVYYCATVGSEDGDPGFDYWGQGTQVTVSS | low polyreactivity
31 | QVQLVESGGGLVQAGGSLRLSCAASGSIFSKYVMGWYRQAPGKERELVAAISWSGTRTYYADSVKGRFTISRDNAKNTVYLQMNSLKPEDTAVYYCAARRPVRVPGQYDYWGQGTQVTVSS | high polyreactivity
32 | QVQLVESGGGLVQAGGSLRLSCAASGSIFSNNAMGWYRQAPGKEREFVAAIRGRGTRAYYADSVKGRFTISRDNAKNTVYLQMNSLKPEDTAVYYCAASARTYVQSGYWGQGTQVTVSS | high polyreactivity

Source: the nanobody polyreactivity screen of Harvey et al. (2022)
